In the supplement of paper PMC5998384:

Columns and labels:
HeLa Kyoto [1] = experiment: melting temperature (median over replicates), in situ; higher = more thermally stable
HeLa Kyoto [2] = experiment: solubility change mitosis vs G1/S (difference of NP-40 vs SDS log2 ratios) (log2 ratio difference); higher = more soluble in mitosis
HeLa Kyoto [3] = experiment: thermal stability score vs G1/S (z-score of summed log2 fold changes over temperatures); higher = more thermally stable than in G1/S
HeLa Kyoto [4] = experiment: solubility in G1/S (NP-40 vs SDS abundance) (log2 ratio); higher = more soluble; details: cell cycle stage: G1/S
[5] = cell cycle stage: early G1 (4.5 h after nocodazole release)
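For melting temperature (median over replicates), in situ in this document: HeLa Kyoto cells synchronized by double thymidine or nocodazole block, proteins quantified by TMT10plex mass spectrometry, three independent biological replicates.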
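For solubility change mitosis vs G1/S (difference of NP-40 vs SDS log2 ratios) in this document: synchronized HeLa Kyoto cells (double thymidine block for G1/S, nocodazole release for mitosis), protein amounts in NP-40 versus SDS lysates quantified by mass spectrometry, three biological replicates.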
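For solubility in G1/S (NP-40 vs SDS abundance) in this document: HeLa Kyoto cells arrested at G1/S by double thymidine block, proteins quantified by TMT10plex mass spectrometry in mild NP-40 versus SDS extracts, three biological replicates.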
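For thermal stability score vs G1/S (z-score of summed log2 fold changes over temperatures) in this document: synchronized HeLa Kyoto cells, proteins quantified by TMT10plex mass spectrometry, three biological replicates, mitosis taken 0.5 h after nocodazole release, G1/S directly after double thymidine block.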

Sequence of MAT2A (chain, as listed by the source): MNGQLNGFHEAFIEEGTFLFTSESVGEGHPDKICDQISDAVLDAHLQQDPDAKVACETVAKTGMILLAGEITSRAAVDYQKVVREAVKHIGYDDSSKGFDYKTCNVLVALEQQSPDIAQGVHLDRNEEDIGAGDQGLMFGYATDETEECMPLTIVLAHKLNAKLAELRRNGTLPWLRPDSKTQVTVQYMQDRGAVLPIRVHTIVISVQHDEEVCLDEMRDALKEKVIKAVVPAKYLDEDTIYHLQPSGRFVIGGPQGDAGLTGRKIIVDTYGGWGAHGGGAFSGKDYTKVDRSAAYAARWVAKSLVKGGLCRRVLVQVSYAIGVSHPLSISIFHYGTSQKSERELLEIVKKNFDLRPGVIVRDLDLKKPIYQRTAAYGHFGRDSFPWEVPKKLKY

Substance | melting temperature (HeLa Kyoto [1]; cell cycle stage: G1/S) | melting temperature (HeLa Kyoto [1]; cell cycle stage: mitosis) | solubility change mitosis (log2) (HeLa Kyoto [2]) | thermal stability score (HeLa Kyoto [3]; [5]) | thermal stability score (HeLa Kyoto [3]; cell cycle stage: mitosis) | solubility in G1/S (log2) (HeLa Kyoto [4])
MASSRASSTQATKTKAPDDLVAPVVKKPHIYYGSLEEKERERLAKGESGILGKDGLKAGIEAGNINITSGEVFEIEEHISERQAEVLAEFERRKRARQINVSTDDSEVKACLRALGEPITLFGEGPAERRERLRNILSVVGTDALKKTKKDDEKSKKSKEEYQQTWYHEGPNSLKVARLWIANYSLPRAMKRLEEARLHKEIPETTRTSQMQELHKSLRSLNNFCSQIGDDRPISYCHFSPNSKMLATACWSGLCKLWSVPDCNLLHTLRGHNTNVGAIVFHPKSTVSLDPKDVNLASCAADGSVKLWSLDSDEPVADIEGHTVRVARVMWHPSGRFLGTTCYDRSWRLWDLEAQEEILHQEGHSMGVYDIAFHQDGSLAGTGGLDAFGRVWDLRTGRCIMFLEGHLKEIYGINFSPNGYHIATGSGDNTCKVWDLRQRRCVYTIPAHQNLVTGVKFEPIHGNFLLTGAYDNTAKIWTHPGWSPLKTLAGHEGKVMGLDISSDGQLIATCSYDRTFKLWMAE [PRPF4] | 49.9 °C | 49.5 °C | 0.223 | -0.546 | -0.96 | -0.454
MASSSGNDDDLTIPRAAINKMIKETLPNVRVANDARELVVNCCTEFIHLISSEANEICNKSEKKTISPEHVIQALESLGFGSYISEVKEVLQECKTVALKRRKASSRLENLGIPEEELLRQQQELFAKARQQQAELAQQEWLQMQQAAQQAQLAAASASASNQAGSSQDEEDDDDI [DR1] | 58.2 °C | 52.7 °C | 0.91 | -1.34 | -0.438 | -0.174
MASSSGSKAEFIVGGKYKLVRKIGSGSFGDIYLAINITNGEEVAVKLESQKARHPQLLYESKLYKILQGGVGIPHIRWYGQEKDYNVLVMDLLGPSLEDLFNFCSRRFTMKTVLMLADQMISRIEYVHTKNFIHRDIKPDNFLMGIGRHCNKLFLIDFGLAKKYRDNRTRQHIPYREDKNLTGTARYASINAHLGIEQSRRDDMESLGYVLMYFNRTSLPWQGLKAATKKQKYEKISEKKMSTPVEVLCKGFPAEFAMYLNYCRGLRFEEAPDYMYLRQLFRILFRTLNHQYDYTFDWTMLKQKAAQQAASSSGQGQQAQTPTGKQTDKTKSNMKGF [CSNK1A1] | 49.6 °C | 50.2 °C | -0.0146 | 1.17 | 1.69 | -0.00541
MASSSVPPATVSAATAGPGPGFGFASKTKKKHFVQQKVKVFRAADPLVGVFLWGVAHSINELSQVPPPVMLLPDDFKASSKIKVNNHLFHRENLPSHFKFKEYCPQVFRNLRDRFGIDDQDYLVSLTRNPPSESEGSDGRFLISYDRTLVIKEVSSEDIADMHSNLSNYHQYIVKCHGNTLLPQFLGMYRVSVDNEDSYMLVMRNMFSHRLPVHRKYDLKGSLVSREASDKEKVKELPTLKDMDFLNKNQKVYIGEEEKKIFLEKLKRDVEFLVQLKIMDYSLLLGIHDIIRGSEPEEEAPVREDESEVDGDCSLTGPPALVGSYGTSPEGIGGYIHSHRPLGPGEFESFIDVYAIRSAEGAPQKEVYFMGLIDILTQYDAKKKAAHAAKTVKHGAGAEISTVHPEQYAKRFLDFITNIFA [PIP4K2C] | 49 °C | 48.7 °C | -0.07 | 0.688 | 2 | 0.315
MASTSRLDALPRVTCPNHPDAILVEDYRAGDMICPECGLVVGDRVIDVGSEWRTFSNDKATKDPSRVGDSQNPLLSDGDLSTMIGKGTGAASFDEFGNSKYQNRRTMSSSDRAMMNAFKEITTMADRINLPRNIVDRTNNLFKQVYEQKSLKGRANDAIASACLYIACRQEGVPRTFKEICAVSRISKKEIGRCFKLILKALETSVDLITTGDFMSRFCSNLCLPKQVQMAATHIARKAVELDLVPGRSPISVAAAAIYMASQASAEKRTQKEIGDIAGVADVTIRQSYRLIYPRAPDLFPTDFKFDTPVDKLPQL [GTF2B] | 49.7 °C | 49.4 °C | -0.111 | 2.28 | 4 | 0.251
MASTSYDYCRVPMEDGDKRCKLLLGIGILVLLIIVILGVPLIIFTIKANSEACRDGLRAVMECRNVTHLLQQELTEAQKGFQDVEAQAATCNHTVMALMASLDAEKAQGQKKVEELEGEITTLNHKLQDASAEVERLRRENQVLSVRIADKKYYPSSQDSSSAAAPQLLIVLLGLSALLQ [BST2] | 57.4 °C | 56.4 °C | 0.237 | -4.66 | -5.14 | -0.713
MASVGECPAPVPVKDKKLLEVKLGELPSWILMRDFSPSGIFGAFQRGYYRYYNKYINVKKGSISGITMVLACYVLFSYSFSYKHLKHERLRKYH [ATP5J2] | 53 °C | – | -0.104 | -0.273 | 1.63 | 0.148
MASVSALTEELDSITSELHAVEIQIQELTERQQELIQKKKVLTKKIKQCLEDSDAGASNEYDSSPAAWNKEDFPWSGKVKDILQNVFKLEKFRPLQLETINVTMAGKEVFLVMPTGGGKSLCYQLPALCSDGFTLVICPLISLMEDQLMVLKQLGISATMLNASSSKEHVKWVHAEMVNKNSELKLIYVTPEKIAKSKMFMSRLEKAYEARRFTRIAVDEVHCCSQWGHDFRPDYKALGILKRQFPNASLIGLTATATNHVLTDAQKILCIEKCFTFTASFNRPNLYYEVRQKPSNTEDFIEDIVKLINGRYKGQSGIIYCFSQKDSEQVTVSLQNLGIHAGAYHANLEPEDKTTVHRKWSANEIQVVVATVAFGMGIDKPDVRFVIHHSMSKSMENYYQESGRAGRDDMKADCILYYGFGDIFRISSMVVMENVGQQKLYEMVSYCQNISKCRRVLMAQHFDEVWNSEACNKMCDNCCKDSAFERKNITEYCRDLIKILKQAEELNEKLTPLKLIDSWMGKGAAKLRVAGVVAPTLPREDLEKIIAHFLIQQYLKEDYSFTAYATISYLKIGPKANLLNNEAHAITMQVTKSTQNSFRAESSQTCHSEQGDKKMEEKNSGNFQKKAANMLQQSGSKNTGAKKRKIDDA [RECQL] | 54 °C | 53.4 °C | -0.174 | -1.7 | -4.39 | 0.0561
MASVTRAVFGELPSGGGTVEKFQLQSDLLRVDIISWGCTITALEVKDRQGRASDVVLGFAELEGYLQKQPYFGAVIGRVANRIAKGTFKVDGKEYHLAINKEPNSLHGGVRGFDKVLWTPRVLSNGVQFSRISPDGEEGYPGELKVWVTYTLDGGELIVNYRAQASQATPVNLTNHSYFNLAGQASPNINDHEVTIEADTYLPVDETLIPTGEVAPVQGTAFDLRKPVELGKHLQDFHLNGFDHNFCLKGSKEKHFCARVHHAASGRVLEVYTTQPGVQFYTGNFLDGTLKGKNGAVYPKHSGFCLETQNWPDAVNQPRFPPVLLRPGEEYDHTTWFKFSVA [GALM] | – | 51.4 °C | -0.0325 | -0.647 | -0.863 | 0.236
MAT2A | 57 °C | 57.3 °C | -0.123 | -0.032 | 0.349 | -0.00612
